{
  "source": "patent US6288037A",
  "about": "“Substrates and inhibitors for cysteine protease ICH-1” (BASF Aktiengesellschaft, priority 1996, dated 2001)",
  "proteins": {"B1": {"name": "N-His Ich-1 (Homo sapiens) (protein)", "chain 1": "YQTHFQLAYRLQSRPRGLALVLSNVHFTGEKELEFRSGGDVDHSTLVTLFKLLGYDVHVLCDQTAQEMQEKLQNFAQLPAHRVTDSCIVALLSHGVEGAIYGVDGKLLQLQEVFQLFDNANCPSLQNKPKMFFIQACRGDETDRGVDQQD", "chain 2": "GKNHAGSPGCEESDAGKEKLPKMRLPTRSDMICGYACLKGTAAMRNTKRGSWYIEALAQVFSERACDMHVADMLVKVNALIKDREGYAPGTEFHRCKEMSEYCSTLCRHLYLFPGHPPT", "notes": "contains Ich-1 amino acid residues 167-435, with an initiator and polyhistidine tag fused to the amino terminus; initiator (Met) + polyhistidine tag (N); made in house"}},
  "substrate": "CC(=O)N[C@H](C(=O)N[C@@H](CC(=O)O)C(=O)N[C@H](C(=O)N[C@@H](C)C(=O)N[C@@H](CC(=O)O)C(=O)Nc1ccc([N+](=O)[O-])cc1)C(C)C)C(C)C",
  "experiment": "In vitro proteolysis assay with chromogenic para-nitroaniline-labeled peptide substrate (absorbance 405 nm)",
  "type": "biochemical, Human",
  "details": "other: pNA substrate cleaved by N-His Ich-1, 30° C.",
  "source_text": "To identify peptide substrates for Ich-1, candidate peptides were used in in vitro proteolysis assays with recombinant Ich-1 protein. Human Ich-1 enzyme (the nucleotide and amino acid sequences for which are disclosed in Wang, L., et al. (1994) Cell 78:739-750) was expressed recombinantly with an N-terminal polyhistidine tag by methods described in Kamens, J., et al. (1995) J. Biol. Chem. 270:15250-15256. The resulting enzyme, called N-His Ich-1, contains Ich-1 amino acid residues 167-435, with an initiator and polyhistidine tag fused to the amino terminus. […]\nA peptidic aldehyde inhibitor of Ich-1 was designed based upon the optimal peptide substrate (Peptide 43) described in Example 3. […] The ability of this peptidic aldehyde inhibitor to inhibit N-His Ich-1 activity was determined in in vitro proteolysis assays using a chromogenic para-nitroaniline-labeled peptide substrate. […]\nTo perform the proteolysis assay, N-His Ich-1 was preincubated for 30 minutes at 30° C. in 160 μl of a reaction buffer containing 100 mM sodium acetate (pH 6.2), 20% (v/v) glycerol, 5 mM DTT, 0.5 mM EDTA, […]. […] The incubation of N-His Ich-1 with the peptide substrate at 30° C. was continued, and the catalytic hydrolysis of peptide substrate was monitored by the change in absorbance of the samples at 405 nm due to release of pNA as a function of time. […]",
  "data": [
    {"protein": "B1", "values": [
      {"measurement": "Km", "result": 42, "unit": "µM"}
    ]}
  ]
}
